# Reference: patent publication US20240219403A1, “METHODS FOR INHIBITING KRAS ONCOPROTEIN THROUGH ENHANCED GTPASE ACTIVITY” (Memorial Sloan-Kettering Cancer Center, priority 2021, published 2024)
# Columns and labels:
# KRAS^G12C [1] = target: T1, KRAS^G12C (Homo sapiens, UniProt P01116, G12C); assay: GTPase assays of purified GTP-loaded KRAS^G12C incubated with GAP proteins (γ-phosphate, α-phosphate, continuous phosphate release); format: biochemical
# T1 construct: endogenous in cells; host or cells: H358, H2122, H2030, SW1573 (KRAS G12C-mutant lung cancer lines, ATCC)
# Method: GTP[γ^32P] hydrolysis assay. KRAS proteins (0.5 μg) were reacted with 0.04 μM GTP[γ^32P] (6000 Ci/mmol; PerkinElmer Life Sciences) in 100 μL loading buffer (50 mM HEPES, pH 7.5, 50 mM NaCl, 1 mM DTT, 0.1 mM EGTA, 10 mM EDTA, and 1 mg/mL BSA) for 10 min at 30° C. (5, 40). Loading reactions were stopped by placing on ice and adding MgCl2 to a final concentration of 20 mM. The GTPase assays were performed at 30° C. in 100 μL mixtures containing 20 nM of loaded KRAS and either hydrolysis buffer (25 mM HEPES pH 7.5, 50 mM NaCl, 1 mM DTT, 1 mM MgCl2 and 1 mg/mL BSA) alone, or in combination with WCE or purified RGS3 (0.08-0.4 μg/μL). Equimolar comparisons of NF1, RASA1 and RGS3 were carried out using the continuous hydrolysis assay (see below). Reactions were stopped at the indicated time by filtering through 0.45-μm nitrocellulose membrane filters. The filters were washed 3 times with 0.2 mL of ice-cold hydrolysis buffer, air dried, and processed by autoradiography. Reaction rates were determined by fitting an exponential curve to the data, which was normalized to the baseline value. […]
# Continuous hydrolysis assay (two-step detection of inorganic phosphate). […] The reaction was monitored by reading the absorbance at 360 nm every 10 to 20 s for ˜16-60 min at room temperature. […]
# KRAS^G12C [2] = target: T1, KRAS^G12C; assay: RAS-binding domain (RBD) pulldown of active (GTP-bound) KRAS in KRAS^G12C-mutant cell lines treated with G12C inhibitors; format: cell-based
# Method: This was performed as described previously (42) by using the RAS activation kit (Thermo Scientific). Briefly, 50 μg whole cell lysates were incubated with 40 μg GST-RBD and 100 μL glutathione beads for 60 min followed by three washes in NP40 wash buffer and elution of pull-down fractions with 2×SDS PAGE loading dye. The samples were then subjected to western blotting with a KRAS specific (WH0003845M1) antibody (43).
RGS3-assisted hydrolysis by KRAS^G12C slower than NF1-stimulated hydrolysis by KRAS^WT (KRAS^G12C [1]),effect on GTP-hydrolysis by KRAS^G12C (KRAS^G12C [1]; purified proteins),Compound,time required for maximal inhibition of KRAS in cells (KRAS^G12C [2]; media with 10% serum) [min],time required for maximal inhibition of KRAS in cells (KRAS^G12C [2]; serum-deprived media (suppresses nucleotide exchange)) [min]
1-2 orders of magnitude,enhanced GTP-hydrolysis,"RGS3: regulator of G protein signaling 3, recombinant p75/p25 variants; GAP for Gαi/q subunit",–,–
–,–,C=CC(=O)N1CCN(c2nc(OC[C@@H]3CCCN3C)nc3c2CCN(c2cccc4cccc(C)c24)C3)C[C@@H]1CC#N [MRTX1257],~60,~20
